Values of other authors, collected in PMC3433420.
Where two headings read alike, the source gives them in different places.

Columns and labels:
Details in all cases: cited from earlier work
[1] = target: VAV2 (Homo sapiens) (UniProt P52735)
[2] = target: PLCG1-C (Homo sapiens) (UniProt P19174)
[3] = target: SYK-NC (Homo sapiens) (UniProt P43405)
[4] = target: RASA1-N (Homo sapiens) (UniProt P20936)
[5] = target: GRB7 (Homo sapiens) (UniProt Q14451)
[6] = target: SHC1-PTB (Homo sapiens) (UniProt P29353)
Chain of SHC1-PTB (Homo sapiens) (P29353 483-583): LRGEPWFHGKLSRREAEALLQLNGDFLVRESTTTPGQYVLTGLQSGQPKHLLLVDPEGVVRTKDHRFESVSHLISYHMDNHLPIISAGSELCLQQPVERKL

[7] = target: PIK3R3-NC (Homo sapiens) (UniProt Q92569)
[8] = target: VAV2 (Homo sapiens) (UniProt P52735); remark: listed apart in the source
[9] = target: SLA (Homo sapiens) (UniProt Q13239)
Chain of SLA (Homo sapiens) (Q13239 79-180): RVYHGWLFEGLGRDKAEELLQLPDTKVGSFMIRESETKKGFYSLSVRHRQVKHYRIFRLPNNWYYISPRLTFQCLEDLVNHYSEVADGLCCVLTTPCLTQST

[10] = target: ABL2 (Homo sapiens) (UniProt P42684)
Chain of ABL2 (Homo sapiens) (P42684 168-268): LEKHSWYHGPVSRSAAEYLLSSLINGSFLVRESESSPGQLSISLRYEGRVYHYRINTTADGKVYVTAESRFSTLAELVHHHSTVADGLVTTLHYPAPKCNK

[11] = target: PLCG1-NC (Homo sapiens) (UniProt P19174)
[12] = target: GRB7 (Homo sapiens) (UniProt Q14451); remark: listed apart in the source
[13] = target: PLCG2-N (Homo sapiens) (UniProt P16885)
Chain of PLCG2-N (Homo sapiens) (P16885 527-740): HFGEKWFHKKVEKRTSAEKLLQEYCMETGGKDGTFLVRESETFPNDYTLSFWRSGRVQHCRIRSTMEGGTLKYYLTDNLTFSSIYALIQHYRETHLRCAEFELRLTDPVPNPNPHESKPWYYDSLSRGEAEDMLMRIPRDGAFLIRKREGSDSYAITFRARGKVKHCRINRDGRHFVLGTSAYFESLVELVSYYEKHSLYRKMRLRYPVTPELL

[14] = target: SYK-NC (Homo sapiens) (UniProt P43405); remark: listed apart in the source
[15] = target: RASA1-NC (Homo sapiens) (UniProt P20936)
Chain of RASA1-NC (Homo sapiens) (P20936 176-446): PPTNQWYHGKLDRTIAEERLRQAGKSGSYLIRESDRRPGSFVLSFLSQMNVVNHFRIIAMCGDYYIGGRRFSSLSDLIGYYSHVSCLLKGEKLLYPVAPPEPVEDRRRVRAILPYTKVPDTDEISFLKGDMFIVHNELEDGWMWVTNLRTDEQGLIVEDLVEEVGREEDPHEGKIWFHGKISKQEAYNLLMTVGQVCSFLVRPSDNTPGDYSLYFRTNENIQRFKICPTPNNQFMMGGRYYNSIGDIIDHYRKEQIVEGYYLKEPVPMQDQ

[16] = target: SHB (Homo sapiens) (UniProt Q15464)
[17] = target: SH2D3C (Homo sapiens) (UniProt Q8N5H7)
[18] = target: GRB10 (Homo sapiens) (UniProt Q13322)
[19] = target: VAV2 (Homo sapiens) (UniProt P52735); remark: listed apart in the source
[20] = target: VAV3 (Homo sapiens) (UniProt Q9UKW4)
Chain of VAV3 (Homo sapiens) (Q9UKW4 667-771): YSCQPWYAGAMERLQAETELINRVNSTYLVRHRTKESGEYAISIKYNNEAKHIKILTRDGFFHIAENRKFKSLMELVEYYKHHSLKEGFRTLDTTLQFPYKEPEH

[21] = target: PIK3R1-N (Homo sapiens) (UniProt P27986)
Chain of PIK3R1-N (Homo sapiens) (P27986 328-723): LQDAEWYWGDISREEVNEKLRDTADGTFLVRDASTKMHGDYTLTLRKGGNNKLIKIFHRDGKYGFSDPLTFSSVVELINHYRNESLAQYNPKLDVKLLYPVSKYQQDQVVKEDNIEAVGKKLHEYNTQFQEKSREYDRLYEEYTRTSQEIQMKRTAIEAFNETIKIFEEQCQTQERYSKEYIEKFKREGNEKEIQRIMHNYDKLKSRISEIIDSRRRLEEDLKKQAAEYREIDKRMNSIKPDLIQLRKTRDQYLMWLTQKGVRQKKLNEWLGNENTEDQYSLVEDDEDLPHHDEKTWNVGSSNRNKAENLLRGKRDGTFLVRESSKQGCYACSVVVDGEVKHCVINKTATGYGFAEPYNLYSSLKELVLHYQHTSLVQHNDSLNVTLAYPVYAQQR

[22] = target: PIK3R2-N (Homo sapiens) (UniProt O00459)
Chain of PIK3R2-N (Homo sapiens) (O00459 325-721): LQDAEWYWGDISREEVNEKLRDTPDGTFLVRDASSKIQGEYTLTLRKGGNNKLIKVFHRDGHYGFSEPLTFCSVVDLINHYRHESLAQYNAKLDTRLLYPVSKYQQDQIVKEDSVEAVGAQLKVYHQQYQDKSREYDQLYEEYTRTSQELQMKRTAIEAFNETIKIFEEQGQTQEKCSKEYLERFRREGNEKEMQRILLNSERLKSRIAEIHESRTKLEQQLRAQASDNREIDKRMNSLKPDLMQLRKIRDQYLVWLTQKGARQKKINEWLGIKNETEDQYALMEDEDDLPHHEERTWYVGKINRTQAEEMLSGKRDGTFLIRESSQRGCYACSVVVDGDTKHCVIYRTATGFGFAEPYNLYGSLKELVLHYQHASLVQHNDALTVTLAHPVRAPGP

[23] = target: GRB14 (Homo sapiens) (UniProt Q14449)
[24] = target: CRK (Homo sapiens) (UniProt P46108)
[25] = target: PLCG2-NC (Homo sapiens) (UniProt P16885)
Chain of PLCG2-NC (Homo sapiens) (P16885 527-740): as the sequence (P16885 527-740) above

[26] = target: YES1 (Homo sapiens) (UniProt P07947)
Chain of YES1 (Homo sapiens) (P07947 153-260): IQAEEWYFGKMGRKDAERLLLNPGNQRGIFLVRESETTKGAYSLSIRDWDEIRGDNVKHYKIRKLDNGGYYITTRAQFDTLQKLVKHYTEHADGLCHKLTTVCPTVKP

[27] = target: BLK (Homo sapiens) (UniProt P51451)
Chain of BLK (Homo sapiens) (P51451 119-225): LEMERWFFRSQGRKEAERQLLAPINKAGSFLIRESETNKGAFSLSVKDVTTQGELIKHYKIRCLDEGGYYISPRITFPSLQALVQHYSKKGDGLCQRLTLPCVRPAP

[28] = target: ABL2 (Homo sapiens) (UniProt P42684); remark: listed apart in the source
[29] = target: SRC (Homo sapiens) (UniProt P12931)
[30] = target: ITK (Homo sapiens) (UniProt Q08881)
Chain of ITK (Homo sapiens) (Q08881 234-343): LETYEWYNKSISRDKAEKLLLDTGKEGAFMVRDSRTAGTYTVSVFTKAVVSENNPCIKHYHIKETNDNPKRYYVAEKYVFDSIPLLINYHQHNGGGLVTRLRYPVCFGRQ

[31] = target: BCAR3 (Homo sapiens) (UniProt O75815)
Chain of BCAR3 (Homo sapiens) (O75815 149-258): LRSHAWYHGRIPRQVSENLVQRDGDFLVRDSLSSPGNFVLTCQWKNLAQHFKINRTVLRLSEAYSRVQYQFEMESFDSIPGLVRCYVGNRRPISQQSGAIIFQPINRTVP

[32] = target: SH2B (Homo sapiens) (UniProt Q9NRF2)
[33] = target: PIK3R1-NC (Homo sapiens) (UniProt P27986)
Chain of PIK3R1-NC (Homo sapiens) (P27986 328-723): as the sequence (P27986 328-723) above

[34] = target: TNS3 (Homo sapiens) (UniProt Q68CZ2)
[35] = target: PIK3R2-NC (Homo sapiens) (UniProt O00459)
Chain of PIK3R2-NC (Homo sapiens) (O00459 325-721): as the sequence (O00459 325-721) above

[36] = target: SHC1-PTB (Homo sapiens) (UniProt P29353); remark: listed apart in the source
[37] = target: SHC2-PTB (Homo sapiens) (UniProt P98077)
[38] = target: SLA (Homo sapiens) (UniProt Q13239); remark: listed apart in the source
[39] = target: SYK-C (Homo sapiens) (UniProt P43405)
[40] = target: SUPT6H (Homo sapiens) (UniProt Q7KZ85)
[41] = target: SH2B3 (Homo sapiens) (UniProt Q9UQQ2)
[42] = target: TNS4 (Homo sapiens) (UniProt Q8IZW8)
Chain of TNS4 (Homo sapiens) (Q8IZW8 444-561): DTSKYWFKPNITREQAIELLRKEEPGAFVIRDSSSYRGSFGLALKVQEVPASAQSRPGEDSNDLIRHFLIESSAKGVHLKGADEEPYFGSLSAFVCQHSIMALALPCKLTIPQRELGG

[43] = target: RASA1-N (Homo sapiens) (UniProt P20936); remark: listed apart in the source
[44] = target: PIK3R3-NC (Homo sapiens) (UniProt Q92569); remark: listed apart in the source
[45] = target: NCK2 (Homo sapiens) (UniProt O43639)
Chain of NCK2 (Homo sapiens) (O43639 280-380): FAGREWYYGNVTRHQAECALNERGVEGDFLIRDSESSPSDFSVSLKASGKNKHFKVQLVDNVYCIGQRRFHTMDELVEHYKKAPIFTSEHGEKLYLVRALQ

[46] = target: FGR (Homo sapiens) (UniProt P09769)
[47] = target: LYN (Homo sapiens) (UniProt P07948)
Chain of LYN (Homo sapiens) (P07948 124-231): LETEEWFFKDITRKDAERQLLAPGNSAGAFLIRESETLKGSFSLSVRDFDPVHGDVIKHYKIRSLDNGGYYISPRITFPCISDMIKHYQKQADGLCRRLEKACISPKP

[48] = target: GRB7 (Homo sapiens) (UniProt Q14451); remark: listed apart in the source
[49] = target: MATK (Homo sapiens) (UniProt P42679)
Chain of MATK (Homo sapiens) (P42679 117-216): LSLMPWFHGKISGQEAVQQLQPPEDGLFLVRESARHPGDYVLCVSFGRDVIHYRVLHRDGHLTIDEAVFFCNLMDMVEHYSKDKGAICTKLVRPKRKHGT

[50] = target: SYK-NC (Homo sapiens) (UniProt P43405); remark: listed apart in the source
[51] = target: ABL2 (Homo sapiens) (UniProt P42684); remark: listed apart in the source
[52] = target: TNS4 (Homo sapiens) (UniProt Q8IZW8); remark: listed apart in the source
[53] = target: RASA1-NC (Homo sapiens) (UniProt P20936); remark: listed apart in the source
[54] = target: NCK2 (Homo sapiens) (UniProt O43639); remark: listed apart in the source
[55] = target: HSH2D (Homo sapiens) (UniProt Q96JZ2)
[56] = target: TENC1 (Homo sapiens) (UniProt Q63HR2)
[57] = target: SHC1-PTB (Homo sapiens) (UniProt P29353); remark: listed apart in the source

Chain of VAV2 (Homo sapiens) (P52735 668-772): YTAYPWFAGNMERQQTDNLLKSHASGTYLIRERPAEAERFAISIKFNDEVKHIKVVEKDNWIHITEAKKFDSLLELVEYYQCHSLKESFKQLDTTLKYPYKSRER
Chain of GRB7 (Homo sapiens) (Q14451 426-532): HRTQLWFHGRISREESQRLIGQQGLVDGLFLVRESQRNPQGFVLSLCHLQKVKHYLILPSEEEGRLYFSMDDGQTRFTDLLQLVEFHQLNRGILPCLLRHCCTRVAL
Chain of RASA1-N (Homo sapiens) (P20936 176-446): as the sequence (P20936 176-446) above

…pYLQEYSTKd
apparent Kd (screen) [1]: 2 µM | apparent Kd (screen) [2]: 2 µM | apparent Kd (screen) [3]: 2 µM | apparent Kd (screen) [4]: 2 µM | apparent Kd (screen) [5]: 2 µM | apparent Kd (screen) [6]: 2 µM | apparent Kd (screen) [7]: 2 µM | apparent Kd (screen) [8]: 0.769 µM | apparent Kd (screen) [9]: 2 µM | apparent Kd (screen) [10]: 0.883 µM | apparent Kd (screen) [11]: 2 µM

…pYQQDFFPKd
apparent Kd (screen) [12]: 2 µM | apparent Kd (screen) [13]: 0.841 µM | apparent Kd (screen) [14]: 1.28 µM | apparent Kd (screen) [15]: 1.17 µM | apparent Kd (screen) [16]: 1.79 µM | apparent Kd (screen) [17]: 1.91 µM | apparent Kd (screen) [18]: 1.29 µM | apparent Kd (screen) [19]: 0.216 µM | apparent Kd (screen) [20]: 2 µM | apparent Kd (screen) [21]: 0.404 µM | apparent Kd (screen) [22]: 0.39 µM | apparent Kd (screen) [23]: 1.25 µM | apparent Kd (screen) [24]: 0.408 µM | apparent Kd (screen) [25]: 0.674 µM | apparent Kd (screen) [26]: 0.098 µM | apparent Kd (screen) [27]: 0.751 µM | apparent Kd (screen) [28]: 0.49 µM | apparent Kd (screen) [29]: 0.466 µM | apparent Kd (screen) [30]: 1.41 µM | apparent Kd (screen) [31]: 0.3 µM | apparent Kd (screen) [32]: 1.82 µM | apparent Kd (screen) [33]: 0.547 µM | apparent Kd (screen) [34]: 0.736 µM | apparent Kd (screen) [35]: 0.322 µM | apparent Kd (screen) [36]: 0.04 µM | apparent Kd (screen) [37]: 1.31 µM | apparent Kd (screen) [38]: 2 µM | apparent Kd (screen) [39]: 0.869 µM | apparent Kd (screen) [40]: 1.03 µM | apparent Kd (screen) [41]: 1.6 µM | apparent Kd (screen) [42]: 0.334 µM | apparent Kd (screen) [43]: 1.14 µM | apparent Kd (screen) [44]: 0.85 µM | apparent Kd (screen) [45]: 0.38 µM | apparent Kd (screen) [46]: 0.546 µM | apparent Kd (screen) [47]: 1.59 µM

…pYWHSRLFP
apparent Kd (screen) [48]: 1.69 µM | apparent Kd (screen) [49]: 1.87 µM | apparent Kd (screen) [50]: 1.98 µM | apparent Kd (screen) [51]: 0.604 µM | apparent Kd (screen) [52]: 0.85 µM | apparent Kd (screen) [53]: 1.92 µM | apparent Kd (screen) [54]: 1.9 µM | apparent Kd (screen) [55]: 1.7 µM | apparent Kd (screen) [56]: 1.25 µM | apparent Kd (screen) [57]: 0.217 µM
